Read-outs that look alike come from different tables or passages of the source. Where no end group is shown, it is not given here.
What was measured:
Assay in all cases: crystal structure
crystal structure [1] = biological target: the molecule itself
crystal structure [2] = biological target: the molecule itself; remark: listed apart in the source
crystal structure [3] = biological target: the molecule itself; remark: listed apart in the source

## SDQDSRLKAIERELEVLTNYVMRSEDGNNDR (domain or fragment, Saccharomyces cerevisiae, UniProt P36094 181-211, looked up) [3H5I-Spc42^181–211 T193E,S195E]
Crystal structure [1]
  stoichiometry N: 3

B1: Spc42^246–305 (domain or fragment, Saccharomyces cerevisiae, UniProt P36094 246-305, looked up)
chain: SDDDIMMYESAELKRVEEEIEELKRKILVRKKHDLRKLSLNNQLQELQSMMDGDDNIKLD
modifications: also: selenomethionine (SeMet) in the crystals
Crystal structure [2]
  stoichiometry N: 2

B2: H6-Spc42^11–130-3K2N (SeMet) (domain or fragment, Saccharomyces cerevisiae, UniProt P36094 11-130, looked up)
chain: SSKSSRLYDDYYNIPYQYSNPTPMNRDYNDVGSRINADKLVPEEYKRNTEFINKAVQQNKELNFKLREKQNEIFELKKIAETLRSKLEKYVDITKKLEDQNLNLQIKISDLEKKLSDANS
modifications: selenomethionine (SeMet)
Crystal structure [3]
  binding result: binds

Reference: publication PMC6724696 (Molecular Biology of the Cell, 2019)
